Experimental data from the supplement of paper PMC12042874.
± gives the uncertainty stated by the source.

Experiment: amyloid nucleation score (Sup35N fusion, yeast selection) (log enrichment); library NNK1; higher = more nucleation; inactive = no reads after selection
How it was run: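 Three technical output replicates were used for random libraries. Psi-negative yeast expressing peptides of 20 random codons fused to Sup35N were induced with 100 μM copper sulfate for 24 hours and grown 7 days at 30°C on medium lacking adenine and uracil, and input and output plasmid inserts were Illumina-sequenced, excluding sequences with under 100 input reads. The nucleation score is the DiMSum log enrichment of output over input reads, centred on the mode score of non-aggregating sequences.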

Row | Substance | amyloid nucleation score
1 | FTVARYKGIYNFSQGRCA | -0.33 ± 1.2
2 | IFTAVSSVAFLSLINVLSLL | 2.75 ± 0.21
3 | RVCVLFSCWRTMYMIWNSRE | 5.71 ± 0.061
4 | ATYSLIFEPWPGPRLVPMQG | -0.12 ± 0.62
5 | RLSRLLTLISVACSTFLCVV | -1.84 ± 2.1
6 | RGPLDP | 0.361 ± 0.45
7 | DIERMKVPELFCLLSLDTGP | -0.376 ± 1.7
8 | YVIHLPKCTKLWMWANCFLW | -0.215 ± 0.62
9 | NRSVRGVFLEGNVRFCWLRE | 1.21 ± 0.85
10 | FMIAFVFSKTRGQSIVSYSV | -0.747 ± 0.85
11 | KFNDDRNGIATLQRHHIAGF | -0.969 ± 0.71
12 | AFFYVVCFDVCKMSTMYLFG | -2.44 ± 2.4
13 | FCYYKCNESGP | -0.751 ± 0.71
14 | NRWSGLSHRS | -1.63 ± 2.1
15 | MVKLSLVIMMVLNGGMANGS | 0.69 ± 0.81
16 | TSELNSYSTCFHSDGLSMNR | inactive
17 | FTGCGLSPMGT | 1.05 ± 0.73
18 | VEEAYER | -0.485 ± 0.5
19 | ASSSGFSMGLCQMYNGTFMG | -1.21 ± 0.94
20 | CFVVAWCKTITV | 1.02 ± 0.66
21 | FGPMLHTLDLCWRGMWIS | -1.56 ± 2.7
22 | AGNFVVPMDAE | 1.62 ± 0.41

Row | Substance | amyloid nucleation score
23 | LEFGSSSGAIVMRGEDPCQP | 0.649 ± 0.52
24 | KGGPRPQMC | -0.244 ± 0.27
25 | DGVRTDLVILFWQCDHYEL | -0.516 ± 0.43
26 | IDNGDCYNDRVLADTVS | -0.577 ± 0.6
27 | GGYGCDGCLSNCMRLNGVWV | inactive
28 | RVDQVKSGFDMLYYPHWHQL | 0.532 ± 0.37
29 | LLVRHEEKG | 0.263 ± 0.42
30 | IFSGSPGLN | 5.71 ± 0.076
31 | SSSFPVMVYTHDAANCHRML | -0.763 ± 0.41
32 | ASFITGWMANTYN | 0.385 ± 0.42
33 | FRCYVFANCD | 1.59 ± 0.4
34 | LRAIRE | 0.33 ± 0.63
35 | AGHYLCGSITNLTA | 0.721 ± 0.97
36 | FYQTS | 0.634 ± 0.4
37 | FRVMNRGAFYMRFKLG | 1.04 ± 0.67
38 | IFTVTGNCTGGAHTQDVVWF | 0.381 ± 0.77
39 | GLCTTCF | 0.126 ± 0.64
40 | GTDYVEGCCSLNFRCCCVNG | 5.117 ± 0.05
41 | IFFYRYYNSHASSGERQNGR | 0.175 ± 0.56
42 | EPMMLY | 0.333 ± 0.28
43 | MYYVIFNTNSHAN | 4.55 ± 0.093
44 | SLNVVLFCRPTGVCSHGIGW | 1.91 ± 0.26

Row | Substance | amyloid nucleation score
45 | WVSANKSNCQMYSGTQTPCE | inactive
46 | RTGVIWYY | -0.677 ± 1
47 | TKCGMGYISGISSPASGQYG | 0.767 ± 1
48 | ITGLVRLFC | 0.134 ± 1
49 | FNMENVGKSQSRAAVRVRH | 0.961 ± 0.42
50 | IMCISFVFFNLKGYGGTG | 3.11 ± 0.082
51 | FKCRACMLYDVYIAERWVTG | -0.022 ± 0.37
52 | VFTHAFNMLCVFYTSQGLKR | 5.35 ± 0.1
53 | MCSLFVCMSNTSIV | 5.406 ± 0.051
54 | KRSANVYRLRCLGGKMLHVN | 3.34 ± 0.081
55 | HLVDFMDE | 0.105 ± 0.3
56 | GVDKASYPHSFGEQWLSLSL | 0.844 ± 0.97
57 | GIFDLLYWLRELSLRKA | 1.14 ± 0.39
58 | CVLPFGLSSG | 0.483 ± 0.48
59 | DSYILRGNSVLGGGTFSVIR | 0.062 ± 0.53
60 | FYTVSCLVCLGL | 8.507 ± 0.047
61 | GNNFFIIVAVLTQKNSAVRV | 1.19 ± 0.22
62 | IIDPDREYTVSN | -0.236 ± 0.95
63 | IWTFRYVFRIFTCSDGTMVH | -0.108 ± 0.42
64 | EASTYHFSCGRANVTDELGT | 0.882 ± 0.53
65 | IHVSENDMELVWLYGVVRI | -0.708 ± 0.9
66 | EFIIVRRDGLGAVYSVTNAF | 1.08 ± 0.7

Row | Substance | amyloid nucleation score
67 | SFDRLMCRAM | 0.688 ± 0.88
68 | TGKGSSEHLRSNMNHRLYCA | 0.85 ± 0.43
69 | DCFARVLLTMRYLKGVVYTE | 1.13 ± 0.27
70 | TLYLPGLKPTRHECMDLHQG | inactive
71 | FRTSVDNLIGSENRISLRTS | 0.541 ± 0.68
72 | VFRTLHSPSVSSGRWSSELS | -0.475 ± 0.5
73 | YLWADTRCLTGVW | 0.413 ± 1.1
74 | ALRAP | -0.383 ± 0.62
75 | ESVTWSWE | 0.505 ± 0.39
76 | DLYFIKDSTLCTISLFLIYW | 0.324 ± 1.2
77 | RCIPLNNNFYASKQLLMSME | 0.259 ± 0.62
78 | KTWVYSRRRRCVRPGCCGDV | 3.3 ± 0.16
79 | MLWSL | 0.342 ± 0.59
80 | DLGNLFLGISVKCI | 0.961 ± 0.53
81 | KMLFGH | -0.085 ± 0.79
82 | PPETRTPVINRSLSIEFDPK | -0.022 ± 0.68
83 | IPENCSGLYWLGNYVPSIAD | -0.439 ± 0.34
84 | HVIYRLRGFITSSPFMTLRT | 0.577 ± 0.45
85 | MDLNEQTEYLLLASRFPMYY | inactive
86 | EVSHT | 0.428 ± 0.25
87 | VKYSVENCMITWDVYMGASL | -0.561 ± 0.29
